The values that follow come from US20230189844.

The target of one data set is Soybean agglutinin (SBA) (UniProt P05046).
In data set [1] the target is T1, Soy Kunitz Inhibitor (Trypsin Inhibitor from soybean) (UniProt P01070).
T1 sequence: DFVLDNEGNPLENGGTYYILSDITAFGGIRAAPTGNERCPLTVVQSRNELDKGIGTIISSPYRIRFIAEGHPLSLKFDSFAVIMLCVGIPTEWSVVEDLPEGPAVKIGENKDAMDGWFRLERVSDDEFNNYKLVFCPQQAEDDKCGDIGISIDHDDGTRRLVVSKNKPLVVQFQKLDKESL

Data set [2] concerns the target T2, Soy Bowman-Birk Inhibitor (UniProt P01055).
T2 sequence: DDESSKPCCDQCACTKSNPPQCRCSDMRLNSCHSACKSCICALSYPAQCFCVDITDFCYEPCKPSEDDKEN

Chain of Soybean agglutinin (SBA) (P05046 33-285): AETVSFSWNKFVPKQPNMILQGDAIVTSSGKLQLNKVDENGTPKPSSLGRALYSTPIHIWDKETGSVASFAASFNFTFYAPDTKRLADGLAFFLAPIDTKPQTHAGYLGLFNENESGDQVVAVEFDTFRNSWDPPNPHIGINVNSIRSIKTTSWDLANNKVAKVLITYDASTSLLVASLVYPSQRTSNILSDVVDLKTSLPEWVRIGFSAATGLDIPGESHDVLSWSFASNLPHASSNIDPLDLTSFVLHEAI

Consider “Protease derived from Bacillus sp. NCIMB 40484”, for which the % of anti-nutritional factor degraded (SDS-PAGE band disappearance, 2 hours, 37° C., pH 6.5) with Soybean agglutinin (SBA) is 21%; in data set [1] it was 100%; in data set [2] it was 41%.
